Source: US20140219982A1, “EXOGENOUS OPIOID PEPTIDE-DEGRADING ENZYME” (priority 2011, published 2014)

Test system: gliadorphin (YPQPQPF: SEQ ID NO: 2)
Test: Analysis of gliadorphin degradation product by LC-MS
Assay type: biochemical

B1: papain (protein, UniProt P00784 134-345, looked up)
Papain: IPEYVDWRQKGAVTPVKNQGSCGSCWAFSAVVTIEGIIKIRTGNLNEYSEQELLDCDRRSYGCNGGYPWSALQLVAQYGIHYRNTYPYEGVQRYCRSREKGPYAAKTDGVRQVQPYNEGALLYSIANQPVSVVLEAAGKDFQLYRGGIFVGPCGNKVDHAVAAVGYGPNYILIKNSWGTGWGENGYIRIKRGTGNSYGVCGLYTSSFYPVKN
notes: protease, commercial (Asahi Food & Healthcare Co., Ltd.)
detection of undegraded 7-mer of gliadorphin (LC-MS of degradation product): undegraded 7-mer was detected | direct degradability for exomorphine peptide (papain alone, as shown in the examples): did not exhibit direct degradability
